Experimental data as given in publication PMC3338718, “Characterization of a Novel ArsR-Like Regulator Encoded by Rv2034 in Mycobacterium tuberculosis”.
Where a chain is given by its changes, count along the chain named.

Assays:
[1] = target: T1, Rv2034C61A C61A (Mycobacterium tuberculosis) (UniProt O53478); assay: EMSA
T1 sequence: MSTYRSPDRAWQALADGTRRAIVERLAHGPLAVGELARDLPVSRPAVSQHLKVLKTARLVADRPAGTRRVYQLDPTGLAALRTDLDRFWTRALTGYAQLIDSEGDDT

[2] = target: T2, Rv2034AE A32G;E35G (Mycobacterium tuberculosis) (UniProt O53478); assay: EMSA
T2 sequence: T1 sequence with A32G, E35G, A61C

[3] = target: T3, Rv2034 (ArsR family regulator) (Mycobacterium tuberculosis, UniProt O53478 1-107); assay: EMSA; 0.1-1.2 uM protein; conditions: protein: recombinant, tags: N-terminal His6 (pET28a), chain copies: 2, label: 5' label (32P or FITC)
T3 sequence: T1 sequence with A61C

[4] = target: T3, Rv2034 (ArsR family regulator); assay: EMSA; up to 1.2 uM protein; conditions: protein: recombinant, tags: N-terminal His6 (pET28a), chain copies: 2, label: 5' label (32P or FITC)

“AATTTCTAGAGCCTGCGGCAAGCACGTCGGTTCCATAGCGATCCAGCACGCCGCAATACTAGGGAGCCTCTCTGCCGGTCATCGCCGCGACGCGCCGCATGGGTTCTCGGAAAATGCTTGTACCAGTCGACTTTCCGGCGGGCCAACGTCGCCAACCGATACTCGGCTCCAACGCCATGGGTGACGGGATGCCCGGATCACGTGTCACACCACCCGCGCACCCTTGCGGAAGAATATCCGTAAGTCTAAACTTACGGTTCGAATTCCCGG (double strand) [Rv2034p promoter]” was tested, and the binding [1] was “no binding” and the binding [2] was “no binding”.

B1: Rv2034BSmu4 (dsDNA)
DNA 1: AGAGTTGATACCGTAAGTTAGCACTTACGGACTTAAGGTT
DNA 2: AACCTTAAGTCCGTAAGTGCTAACTTACGGTATCAACTCT
B1: binds [3].

B2: Rv2034BSmu2 (dsDNA)
DNA 1: GGAAGAATATGGCATTCACTAAACTGCATGTTCGTGTCCA
DNA 2: TGGACACGAACATGCAGTTTAGTGAATGCCATATTCTTCC
B2: no binding ([4]; blunt).

B3: Rv2034BSmu5 (dsDNA)
DNA 1: B2 DNA 1 with A23C, C24A, T25G, G30A
DNA 2: B2 DNA 2 with C11T, A16C, G17T, T18G
B3: no binding [4].

B4: Rv2034BSmu3 (dsDNA)
DNA 1: GGAAGAATATCCGTAAGTCTGATAAAACTTACGGTTCGTGTCCA
DNA 2: TGGACACGAACCGTAAGTTTTATCAGACTTACGGATATTCTTCC
B4: binds ([3]; blunt).
